Where a chain is given by its changes, count along the chain named. Entries after “also recorded” stand apart in the source; their conditions may differ. Ends that are not written are not given here. GST = glutathione S-transferase

The record followed here is patent US20110212108A1, “NEUREGULIN/ERBB SIGNALING AND INTEGRIN” (THE REGENTS OF THE UNIVERSITY OF CALIFORNIA, priority 2008, published 2011).

The target of experiment [1] is T1, integrin αvβ3 (Homo sapiens, UniProt P05106+P06756).
T1 construct: Soluble recombinant integrin αvβ3 (5 μg/ml) was added to the wells; made in house
T1 sequence (P06756 31-992 limits assumed): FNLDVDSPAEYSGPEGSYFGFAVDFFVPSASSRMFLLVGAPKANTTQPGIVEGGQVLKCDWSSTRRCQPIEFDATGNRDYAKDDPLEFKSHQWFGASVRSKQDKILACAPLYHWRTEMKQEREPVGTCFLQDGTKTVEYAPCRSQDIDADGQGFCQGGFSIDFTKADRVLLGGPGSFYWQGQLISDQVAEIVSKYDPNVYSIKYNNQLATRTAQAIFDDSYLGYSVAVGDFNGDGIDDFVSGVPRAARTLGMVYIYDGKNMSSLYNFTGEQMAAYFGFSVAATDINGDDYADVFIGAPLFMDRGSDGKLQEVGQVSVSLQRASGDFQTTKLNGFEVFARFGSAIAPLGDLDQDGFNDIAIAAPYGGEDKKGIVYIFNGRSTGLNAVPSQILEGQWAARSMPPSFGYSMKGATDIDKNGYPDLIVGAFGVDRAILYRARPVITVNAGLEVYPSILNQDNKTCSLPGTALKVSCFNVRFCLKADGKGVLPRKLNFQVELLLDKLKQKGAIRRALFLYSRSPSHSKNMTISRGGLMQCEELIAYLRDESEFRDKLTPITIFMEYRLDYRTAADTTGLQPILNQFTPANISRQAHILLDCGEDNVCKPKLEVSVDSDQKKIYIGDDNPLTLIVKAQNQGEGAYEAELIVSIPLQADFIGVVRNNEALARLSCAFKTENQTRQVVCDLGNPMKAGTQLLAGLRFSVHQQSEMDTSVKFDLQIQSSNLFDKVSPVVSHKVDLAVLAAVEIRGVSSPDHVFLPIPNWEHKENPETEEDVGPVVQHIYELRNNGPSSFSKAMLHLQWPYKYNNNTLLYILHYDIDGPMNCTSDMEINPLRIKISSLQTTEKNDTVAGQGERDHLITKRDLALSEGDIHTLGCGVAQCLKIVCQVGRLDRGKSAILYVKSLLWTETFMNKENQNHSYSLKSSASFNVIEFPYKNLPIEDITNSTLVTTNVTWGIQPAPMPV
T1 sequence (P05106 27-718 limits assumed): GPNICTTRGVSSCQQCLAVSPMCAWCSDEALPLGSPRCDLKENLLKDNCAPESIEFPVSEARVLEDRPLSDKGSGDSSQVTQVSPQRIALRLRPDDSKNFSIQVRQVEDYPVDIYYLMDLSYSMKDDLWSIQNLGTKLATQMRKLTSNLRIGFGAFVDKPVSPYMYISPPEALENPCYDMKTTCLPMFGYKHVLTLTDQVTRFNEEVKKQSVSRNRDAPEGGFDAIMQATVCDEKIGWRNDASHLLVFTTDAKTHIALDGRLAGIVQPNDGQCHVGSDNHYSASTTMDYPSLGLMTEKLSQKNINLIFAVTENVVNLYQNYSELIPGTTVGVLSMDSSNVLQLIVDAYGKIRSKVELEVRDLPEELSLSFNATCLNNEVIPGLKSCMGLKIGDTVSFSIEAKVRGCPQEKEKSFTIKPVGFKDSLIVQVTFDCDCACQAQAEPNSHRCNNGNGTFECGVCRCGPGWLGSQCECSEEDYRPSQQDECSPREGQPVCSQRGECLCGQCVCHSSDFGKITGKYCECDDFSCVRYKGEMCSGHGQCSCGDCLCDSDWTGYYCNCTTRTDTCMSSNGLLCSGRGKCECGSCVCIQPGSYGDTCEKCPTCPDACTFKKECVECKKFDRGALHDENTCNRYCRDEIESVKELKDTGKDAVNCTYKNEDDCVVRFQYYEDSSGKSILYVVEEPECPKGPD
Nature of the experiment: ELISA-type binding of soluble recombinant integrin αvβ3 to immobilized NRG1 fragments. To be noted: soluble αvβ3, 1 mM Mn2+, room temperature. As for the experimental part:
FIG. 1. […] The isolated EGF-like domain of Wt NRG1 was immobilized to wells of 96-well titer plates. The concentrations of the coating solution are shown. Soluble recombinant integrin αvβ3 (5 μg/ml) was added to the wells in the presence of 1 mM Mn^2+ and incubated for 2 h at room temperature. After washing the wells bound αvβ3 was determined by using anti-β3 antibody and HRP-conjugated anti-mouse IgG. The data is shown as means+/−SEM of triplicate experiments. FIG. 7. […] Wt GST-NRG1 (175-222) and the 2KE mutant of GST-NRG1 (175-222) were immobilized to wells of 96-well titer plates. The concentrations of the coating solution are shown. Soluble recombinant integrin αvβ3 (5 μg/ml) was added to the wells in the presence of 1 mM Mn^2+ and incubated for 2 h at room temperature. After washing, the wells bound αvβ3 was determined by using anti-β3 antibody and HRP-conjugated anti-mouse IgG. The data are shown as means+/−SD of triplicate experiments. […] Direct αvβ3-NRG (175-222) interaction: It has been well established that the EGF-like domain of the NRGs is sufficient to specifically activate ErbB receptors and to induce cellular responses in culture. To generate GST-NRG1 EGF-like domain fusion protein, the cDNA fragment of the EGF-like domain of NRG1 was amplified by PCR and subcloned into PGEX-2T vector to generate GST-NRG1 EGF-like domain fusion protein (designated GST-NRG1 (175-222)) in E. coli BL21. The fusion protein was purified in glutathione-affinity chromatography. The affinity resin was extensively washed with 1% Triton X-114 to remove endotoxin before eluting the protein. It was tested, in the present invention, whether soluble recombinant integrin αvβ3 binds to GST-NRG1 (175-222) that is immobilized to plastic wells (ELISA-type assay). […] Cell adhesion and soluble integrin binding assays were performed as described previously (Mori, et al., 2008). NRG1α (175-241) was immobilized to wells of 96-well microtiter plate overnight at 4° C. in 0.1 M carbonate buffer, pH 2 9.4. Remaining protein binding sites were blocked by incubating with 200 μl of 0.1% BSA in PBS for 60 min at room temperature. Wells were then incubated with soluble integrin αvβ3 in 50 μl in Hepes-Tyrode's buffer supplemented with 1 mM Mn2+ at room temperature for 60 min. After rinsing the wells with the same buffer, bound integrins were determined by horseradish peroxidase (HRP)-conjugated anti-His tag mouse IgG and substrate 3,3′,5,5′-tetramethylbenzidine of HRP.
(In general: In an ELISA, binding on a coated surface is turned into a signal by an enzyme label.)

Experiment [2] deals with T2, human integrin αvβ3 on K562 erythroleukemic cells (αvβ3-K562) (human, UniProt P06756 31-1048; P05106 27-788).
T2 construct: whole, on cells; also called K562 cells that express human αvβ3
T2 sequence (P06756 31-1048, chain 1 of 2): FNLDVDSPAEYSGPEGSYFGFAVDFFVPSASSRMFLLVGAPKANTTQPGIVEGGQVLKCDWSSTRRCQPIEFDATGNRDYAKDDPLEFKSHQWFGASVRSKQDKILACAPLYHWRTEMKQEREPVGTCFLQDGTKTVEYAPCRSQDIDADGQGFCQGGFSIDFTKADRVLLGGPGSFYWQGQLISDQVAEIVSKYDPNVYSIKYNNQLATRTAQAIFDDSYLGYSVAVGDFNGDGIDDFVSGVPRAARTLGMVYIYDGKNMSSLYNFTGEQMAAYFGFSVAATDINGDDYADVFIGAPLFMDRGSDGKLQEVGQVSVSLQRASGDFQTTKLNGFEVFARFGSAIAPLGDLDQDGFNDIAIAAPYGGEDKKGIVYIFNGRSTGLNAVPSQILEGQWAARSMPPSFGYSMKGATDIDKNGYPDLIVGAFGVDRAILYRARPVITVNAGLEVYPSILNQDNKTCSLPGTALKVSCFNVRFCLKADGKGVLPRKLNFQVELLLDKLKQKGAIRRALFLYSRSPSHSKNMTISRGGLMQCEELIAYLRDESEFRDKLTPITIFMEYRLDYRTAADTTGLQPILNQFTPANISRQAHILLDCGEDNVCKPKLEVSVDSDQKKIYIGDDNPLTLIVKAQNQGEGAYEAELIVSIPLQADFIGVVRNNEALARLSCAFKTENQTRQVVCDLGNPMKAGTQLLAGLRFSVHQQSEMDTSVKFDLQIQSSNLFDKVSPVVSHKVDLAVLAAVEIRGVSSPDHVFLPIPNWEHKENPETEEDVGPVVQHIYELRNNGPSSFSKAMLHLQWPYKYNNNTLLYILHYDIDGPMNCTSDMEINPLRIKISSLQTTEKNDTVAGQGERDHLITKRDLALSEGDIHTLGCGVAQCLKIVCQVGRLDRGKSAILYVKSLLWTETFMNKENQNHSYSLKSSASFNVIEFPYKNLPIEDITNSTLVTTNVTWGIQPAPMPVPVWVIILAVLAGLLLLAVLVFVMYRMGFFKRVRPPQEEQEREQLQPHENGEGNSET
T2 sequence (P05106 27-788, chain 2 of 2): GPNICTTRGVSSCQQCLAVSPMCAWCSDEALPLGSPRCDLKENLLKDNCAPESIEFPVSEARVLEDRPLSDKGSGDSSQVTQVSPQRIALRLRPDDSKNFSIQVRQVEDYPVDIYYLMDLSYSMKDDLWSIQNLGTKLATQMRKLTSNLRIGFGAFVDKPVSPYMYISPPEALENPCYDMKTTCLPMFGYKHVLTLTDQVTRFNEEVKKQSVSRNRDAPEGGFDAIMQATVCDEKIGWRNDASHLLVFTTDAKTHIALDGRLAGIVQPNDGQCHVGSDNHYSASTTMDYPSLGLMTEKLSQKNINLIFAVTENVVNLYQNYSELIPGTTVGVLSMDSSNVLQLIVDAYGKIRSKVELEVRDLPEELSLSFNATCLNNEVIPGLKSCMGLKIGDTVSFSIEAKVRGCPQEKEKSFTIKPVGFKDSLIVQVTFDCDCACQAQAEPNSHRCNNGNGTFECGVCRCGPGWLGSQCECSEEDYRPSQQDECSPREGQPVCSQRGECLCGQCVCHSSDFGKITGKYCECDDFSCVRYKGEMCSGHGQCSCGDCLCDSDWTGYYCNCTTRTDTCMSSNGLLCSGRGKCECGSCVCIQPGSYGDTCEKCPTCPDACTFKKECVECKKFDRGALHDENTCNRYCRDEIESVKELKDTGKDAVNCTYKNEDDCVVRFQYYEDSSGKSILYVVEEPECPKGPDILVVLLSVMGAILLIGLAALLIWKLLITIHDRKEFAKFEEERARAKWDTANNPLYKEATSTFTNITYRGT
Description: cell adhesion to immobilised NRG1α.

The target in experiment [3] is T3, Recombinant human ErbB3 Fc chimera (R&D Systems) (human, UniProt P21860 20-643).
T3 construct: Bought from R&D Systems; also called recombinant soluble ErbB3 Fc fusion protein; recombinant soluble ErbB3; Fc part of the bought chimera not given; not described
T3 sequence (P21860 20-643, change not shown): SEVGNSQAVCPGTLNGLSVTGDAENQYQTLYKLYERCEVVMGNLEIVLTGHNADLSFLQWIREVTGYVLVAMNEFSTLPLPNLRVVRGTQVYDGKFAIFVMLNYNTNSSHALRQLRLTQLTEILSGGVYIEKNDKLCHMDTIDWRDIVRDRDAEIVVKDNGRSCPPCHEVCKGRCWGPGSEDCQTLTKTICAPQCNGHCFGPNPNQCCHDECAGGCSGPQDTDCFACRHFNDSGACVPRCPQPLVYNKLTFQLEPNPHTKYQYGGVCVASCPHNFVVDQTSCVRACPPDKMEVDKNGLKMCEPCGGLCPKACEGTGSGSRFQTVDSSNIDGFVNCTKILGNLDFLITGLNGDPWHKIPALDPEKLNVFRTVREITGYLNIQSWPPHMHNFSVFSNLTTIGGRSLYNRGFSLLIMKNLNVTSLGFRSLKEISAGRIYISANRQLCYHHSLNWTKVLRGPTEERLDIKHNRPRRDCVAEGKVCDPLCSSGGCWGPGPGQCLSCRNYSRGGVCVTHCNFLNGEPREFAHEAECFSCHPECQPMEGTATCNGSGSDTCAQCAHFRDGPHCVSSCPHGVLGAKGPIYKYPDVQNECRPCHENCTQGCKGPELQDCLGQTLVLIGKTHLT
Nature of the experiment: ELISA-type assay, ErbB3 Fc coated at 1 µg/ml, bound GST fusion detected with anti-GST HRP.

The subject of experiment [4] is mammary intraepithelial neoplasia-outgrowth (MIN-O). Nature of the experiment: Outgrowth of precancer (MIN-O) in FVB mice. Type of experiment: in vivo. To be noted: 200 ng/day/mouse intraperitoneally, 5 days a week for 4 weeks; P=0.0355. As for the experimental part:
FIG. 16. Inhibitory effect of daily intraperitoneal injection of 3KE (175-222) on the outgrowth of precancer (MIN-O) in FVB mice. MIN-O was transplanted into fat pads of FVB mice (two per mice) and 3KE (175-222) (200 ng/mouse/day) was injected 5 days a week for 4 weeks starting day 0. After 28 days, mice were sacrificed and the dimensions of tumors were measured. Since MIN-O grows as a thin layer, the two-dimensional size was calculated and the thickness was ignored. P=0.0355 by ANOVA between control and 3KE (175-222).
To study the effect of 3KE (175-222) on the premalignant cancer, transplantable mammary intraepithelial neoplasia-outgrowth (MIN-O) tissue lines, which were derived from hyperplastic mammary lesions in young Tg(MMTV-PyV-mT) females (Maglione et al. 2004), were used. The resulting lesions mimic the biological behavior, molecular biology, and histopathology of human ductal carcinoma in situ (Maglione et al. 2004). One mm^3 pieces of the 8w-BMINO tissues (Maglione et al. 2004) were transplanted to gland-cleared no. 4 mammary fat pads of 3-week-old FVB females bilaterally.

Experiment [5] deals with T2, human integrin αvβ3 on K562 …. Description: cell adhesion of αvβ3-K562 cells.
The target of experiment [6] is T4, human integrin α6β4 on CHO cells (α6β4-CHO) (human, UniProt P23229 24-1130; P16144 28-1822).
T4 construct: whole, on cells; also called keratinocyte integrin α6β4
Description: cell adhesion of α6β4-CHO cells to immobilised 3KE (175-222).

In experiment [7] the target is T2, human integrin αvβ3 on K562 …. Description: cell adhesion of αvβ3-K562 cells to immobilised 3KE (175-222).

As to “2KE (175-222): NRG1 (175-222) with Lys185/Lys187 mutated to Glu; GTSHLVKCAEEEETFCVNGGECFMVKDLSNPSRYLCKCQPGFTGARCT (SEQ ID NO:12) (integrin-binding site within human neuregulin, 2KE mutant, short version)”, the “Binding of soluble recombinant integrin αvβ3 to the immobilized protein” value in experiment [1] is given as “much lower affinity to αvβ3; also recorded: did not”.

B1: GST-NRG1α (175-241), wild type (EGF-like motif and α domain of human neuregulin 1α as GST fusion protein) (ligand)
chain: GTSHLVKCAEKEKTFCVNGGECFMVKDLSNPSRYLCKCQPGFTGARCTENVPMKVQNQEKAEELYQK
notes: not shown: glutathione S-transferase (GST) tag as encoded by the pGEX-2T vector, N-terminal
Regarding B1, the binding result in experiment [2] and in experiment [3] was “binds” in each case.

B2: 3KE (175-241) mutant of NRG1α (Lys181/Lys185/Lys187 to Glu), GST fusion protein (ligand, not shown: a dimerising Fc or GST; large carriers; small tags and cut ends)
chain: B1 chain with K7E, K11E, K13E
As to B2, in experiment [3], the binding result was “binds”.

B3: γC399tr: Control protein in the MIN-O experiment (protein)
chain: KDCQDIANKGAKQSGLYFIKPLKANQQFLVYCEIDGSGNGWTVFQKRLDGSVDFKKNWIQYKEGFGHLSPTGTTEFWLGNEKIHLISTQSAIPYALRVELEDWNGRTSTADYAMFKVGPEADKYRLTYAYFAGGDAGDAFDGFDFGDDPSDKFFTSHNGMQFSTWDNDNDKFEGNCAEQDGSGWWMNKCHAGHLNGVYYQGGTYSKASTPNGYDNGIIWATWKTRWYSMKKTTMKIIPFNRLTIGEGQQ
Regarding B3, the “Outgrowth of MIN-O in FVB mice” value in experiment [4] is on record as “did not affect the outgrowth of MIN-O”.

B4: GST-NRG1 (175-222), wild type EGF-like domain of human neuregulin 1 as GST fusion protein (ligand)
chain: {GST}-GTSHLVKCAEKEKTFCVNGGECFMVKDLSNPSRYLCKCQPGFTGARCT
modifications: not fully specified; cysteine pairing not given here
notes: Made in E. coli as GST fusion (pGEX-2T); not shown: glutathione S-transferase (GST) tag as encoded by the pGEX-2T vector, N-terminal
Turning to B4, in experiment [5], the binding result was “binds”.
Take GTSHLVECAEEEETFCVNGGECFMVKDLSNPSRYLCKCQPGFTGARCT (ligand, not shown: a dimerising Fc or GST; large carriers; small tags and cut ends) [3KE (175-222) mutant of NRG1 (Lys181/Lys185/Lys187 to Glu), GST fusion protein]: the binding result in experiment [6] and in experiment [7] was “no binding” each time.
